Source: article PMC8164048

Assays:
[1] = molecular target: Full-length human low-density lipoprotein receptor-related protein 1 (LRP1) (human) (UniProt Q07954); experiment: SPR; full-length LRP1 coupled to the chip (Biacore 3000); single-cycle kinetic titration of tau forms (3.8, 11.5, 34.4, 103.3, 310 nM, 3.5-min injections), with Ca2+; Req from a pseudo first-order fit plotted against concentration, KD by nonlinear regression
[2] = molecular target: Full-length human low-density lipoprotein receptor-related protein 1 (LRP1) (human) (UniProt Q07954); experiment: SPR; LRP1-coupled chip; lipid-free apoE isoforms injected at 52, 104, 208, 417, 834, 1668 nM; association and dissociation fit globally to a bivalent binding model; KD = 1/KA, KA = (ka1/kd1)*(1+(ka2/kd2))
[3] = molecular target: Full-length human low-density lipoprotein receptor-related protein 1 (LRP1) (human) (UniProt Q07954); experiment: SPR; LRP1-coupled chip; lipid-free apoE isoforms; equilibrium analysis, Req from a pseudo first-order fit of the association data

Chain of UniProt Q07954 (Q07954 20-4544): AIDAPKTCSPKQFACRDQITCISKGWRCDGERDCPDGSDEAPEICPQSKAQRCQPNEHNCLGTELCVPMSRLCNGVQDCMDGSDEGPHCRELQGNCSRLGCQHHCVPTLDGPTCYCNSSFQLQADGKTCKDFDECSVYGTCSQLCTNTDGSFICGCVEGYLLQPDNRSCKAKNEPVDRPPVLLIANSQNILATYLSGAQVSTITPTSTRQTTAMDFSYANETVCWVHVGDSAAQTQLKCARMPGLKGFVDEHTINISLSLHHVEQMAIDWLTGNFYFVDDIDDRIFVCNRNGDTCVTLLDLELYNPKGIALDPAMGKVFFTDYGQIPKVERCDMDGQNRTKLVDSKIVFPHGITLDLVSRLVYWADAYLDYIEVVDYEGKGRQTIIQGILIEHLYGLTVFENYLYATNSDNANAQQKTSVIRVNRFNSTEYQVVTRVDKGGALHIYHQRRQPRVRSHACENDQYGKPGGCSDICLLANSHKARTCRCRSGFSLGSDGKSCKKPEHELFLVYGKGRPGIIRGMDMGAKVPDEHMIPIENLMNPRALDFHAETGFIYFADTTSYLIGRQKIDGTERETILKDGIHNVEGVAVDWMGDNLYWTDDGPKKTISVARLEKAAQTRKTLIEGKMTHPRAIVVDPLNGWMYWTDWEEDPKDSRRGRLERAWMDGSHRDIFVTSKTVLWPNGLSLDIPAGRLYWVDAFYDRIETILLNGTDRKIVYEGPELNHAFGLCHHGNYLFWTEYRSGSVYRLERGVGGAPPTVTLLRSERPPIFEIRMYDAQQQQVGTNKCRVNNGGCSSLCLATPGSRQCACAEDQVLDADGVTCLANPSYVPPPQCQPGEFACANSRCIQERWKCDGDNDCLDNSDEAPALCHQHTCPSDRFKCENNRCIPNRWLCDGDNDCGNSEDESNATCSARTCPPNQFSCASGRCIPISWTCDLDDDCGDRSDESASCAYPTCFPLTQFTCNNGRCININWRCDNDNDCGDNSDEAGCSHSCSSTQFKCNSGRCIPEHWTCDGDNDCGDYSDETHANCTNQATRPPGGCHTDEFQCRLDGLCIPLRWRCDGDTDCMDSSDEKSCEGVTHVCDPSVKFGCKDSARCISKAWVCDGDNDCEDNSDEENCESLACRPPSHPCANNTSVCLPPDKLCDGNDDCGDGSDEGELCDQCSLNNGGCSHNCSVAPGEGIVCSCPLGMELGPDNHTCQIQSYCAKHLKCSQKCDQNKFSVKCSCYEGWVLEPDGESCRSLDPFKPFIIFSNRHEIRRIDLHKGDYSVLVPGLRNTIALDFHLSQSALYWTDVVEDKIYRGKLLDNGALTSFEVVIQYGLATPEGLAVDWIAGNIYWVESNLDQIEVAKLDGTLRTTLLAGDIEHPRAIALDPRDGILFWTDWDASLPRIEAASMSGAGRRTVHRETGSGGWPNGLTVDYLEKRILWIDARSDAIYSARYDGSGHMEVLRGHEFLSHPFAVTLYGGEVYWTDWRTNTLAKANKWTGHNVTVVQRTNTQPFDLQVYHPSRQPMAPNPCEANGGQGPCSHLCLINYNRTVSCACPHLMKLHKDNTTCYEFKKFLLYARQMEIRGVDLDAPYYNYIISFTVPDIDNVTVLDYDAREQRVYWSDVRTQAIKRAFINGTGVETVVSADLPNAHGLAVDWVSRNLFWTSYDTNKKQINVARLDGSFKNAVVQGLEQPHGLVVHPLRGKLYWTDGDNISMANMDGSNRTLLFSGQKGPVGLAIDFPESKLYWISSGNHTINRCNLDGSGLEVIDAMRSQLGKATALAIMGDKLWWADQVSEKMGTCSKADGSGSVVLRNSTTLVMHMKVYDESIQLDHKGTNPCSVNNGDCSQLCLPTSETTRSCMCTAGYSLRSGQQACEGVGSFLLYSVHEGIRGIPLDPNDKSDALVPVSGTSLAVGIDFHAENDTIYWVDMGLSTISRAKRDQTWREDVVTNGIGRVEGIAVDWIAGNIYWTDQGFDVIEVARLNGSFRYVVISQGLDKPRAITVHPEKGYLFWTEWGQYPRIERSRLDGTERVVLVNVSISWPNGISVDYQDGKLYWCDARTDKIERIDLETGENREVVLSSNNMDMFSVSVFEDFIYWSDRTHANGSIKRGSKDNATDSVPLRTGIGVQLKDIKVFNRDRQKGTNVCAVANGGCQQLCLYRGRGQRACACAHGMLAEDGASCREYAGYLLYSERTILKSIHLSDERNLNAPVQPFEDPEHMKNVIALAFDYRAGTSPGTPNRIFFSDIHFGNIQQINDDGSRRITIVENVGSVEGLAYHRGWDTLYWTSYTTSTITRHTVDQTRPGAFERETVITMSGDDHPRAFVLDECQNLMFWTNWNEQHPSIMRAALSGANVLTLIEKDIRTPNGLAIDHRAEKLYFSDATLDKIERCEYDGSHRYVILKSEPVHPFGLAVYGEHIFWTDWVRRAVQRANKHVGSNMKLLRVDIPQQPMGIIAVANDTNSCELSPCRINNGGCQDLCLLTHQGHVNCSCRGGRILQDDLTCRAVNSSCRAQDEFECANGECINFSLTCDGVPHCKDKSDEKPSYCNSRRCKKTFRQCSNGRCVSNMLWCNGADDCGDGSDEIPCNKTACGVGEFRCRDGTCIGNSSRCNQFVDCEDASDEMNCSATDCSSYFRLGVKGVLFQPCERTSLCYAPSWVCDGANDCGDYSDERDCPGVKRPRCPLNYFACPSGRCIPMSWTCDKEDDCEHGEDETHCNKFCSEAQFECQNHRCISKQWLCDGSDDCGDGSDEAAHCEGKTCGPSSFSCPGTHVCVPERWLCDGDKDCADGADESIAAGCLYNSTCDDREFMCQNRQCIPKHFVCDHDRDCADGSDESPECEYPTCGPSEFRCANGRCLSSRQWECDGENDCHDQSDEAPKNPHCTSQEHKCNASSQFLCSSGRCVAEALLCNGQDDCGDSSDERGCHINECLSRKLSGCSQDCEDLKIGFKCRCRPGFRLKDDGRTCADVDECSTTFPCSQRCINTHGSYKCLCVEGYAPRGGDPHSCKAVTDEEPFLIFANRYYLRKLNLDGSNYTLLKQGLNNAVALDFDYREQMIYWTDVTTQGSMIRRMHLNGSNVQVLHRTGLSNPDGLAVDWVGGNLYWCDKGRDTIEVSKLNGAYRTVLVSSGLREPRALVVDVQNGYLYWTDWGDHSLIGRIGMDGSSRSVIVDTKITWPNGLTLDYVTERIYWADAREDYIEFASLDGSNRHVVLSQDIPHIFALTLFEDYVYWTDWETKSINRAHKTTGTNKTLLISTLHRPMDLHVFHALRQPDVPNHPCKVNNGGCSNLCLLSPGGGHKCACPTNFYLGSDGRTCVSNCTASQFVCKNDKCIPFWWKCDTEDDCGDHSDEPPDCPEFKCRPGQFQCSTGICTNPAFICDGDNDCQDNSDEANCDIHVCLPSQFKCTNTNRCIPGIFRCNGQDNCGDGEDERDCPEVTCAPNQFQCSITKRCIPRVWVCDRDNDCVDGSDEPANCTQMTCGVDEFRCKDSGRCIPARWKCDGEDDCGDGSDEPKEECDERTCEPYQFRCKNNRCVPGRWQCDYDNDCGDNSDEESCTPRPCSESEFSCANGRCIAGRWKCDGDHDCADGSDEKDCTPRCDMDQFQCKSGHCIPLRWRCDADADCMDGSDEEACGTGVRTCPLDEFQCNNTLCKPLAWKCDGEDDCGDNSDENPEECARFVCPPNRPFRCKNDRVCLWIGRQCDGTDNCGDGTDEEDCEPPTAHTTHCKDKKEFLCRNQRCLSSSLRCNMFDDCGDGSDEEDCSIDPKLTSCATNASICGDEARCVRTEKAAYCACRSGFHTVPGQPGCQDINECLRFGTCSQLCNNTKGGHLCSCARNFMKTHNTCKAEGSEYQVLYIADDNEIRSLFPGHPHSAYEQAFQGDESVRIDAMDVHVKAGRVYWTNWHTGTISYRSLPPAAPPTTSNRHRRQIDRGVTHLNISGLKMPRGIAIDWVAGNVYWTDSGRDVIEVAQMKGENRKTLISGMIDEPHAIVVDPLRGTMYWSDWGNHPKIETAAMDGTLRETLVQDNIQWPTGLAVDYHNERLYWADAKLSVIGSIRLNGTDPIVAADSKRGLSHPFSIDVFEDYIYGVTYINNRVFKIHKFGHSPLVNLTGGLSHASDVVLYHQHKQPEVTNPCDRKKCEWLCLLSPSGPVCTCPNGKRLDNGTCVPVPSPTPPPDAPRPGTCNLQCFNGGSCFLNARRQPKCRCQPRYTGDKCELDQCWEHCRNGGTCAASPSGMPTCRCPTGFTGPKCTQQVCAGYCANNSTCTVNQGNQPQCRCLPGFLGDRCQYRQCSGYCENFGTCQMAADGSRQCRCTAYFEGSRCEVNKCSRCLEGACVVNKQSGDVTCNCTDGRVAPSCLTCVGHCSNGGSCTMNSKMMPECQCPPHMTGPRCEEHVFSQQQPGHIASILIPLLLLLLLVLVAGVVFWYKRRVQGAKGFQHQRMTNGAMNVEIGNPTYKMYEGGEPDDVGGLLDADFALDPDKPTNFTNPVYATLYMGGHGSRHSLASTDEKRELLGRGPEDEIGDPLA

Kd [1] [nM]	Kd [2] [nM]	ka1 [2] [M⁻¹ s⁻¹]	ka2 [2] [s⁻¹]	kd1 [2] [s⁻¹]	kd2 [2] [s⁻¹]	Kd [3] [nM]	Substance
372							9XKQ 2N4R tau (natural protein)
	529	34000	0.01	0.086	0.0028	493	Recombinant human apolipoprotein E2 (lipid-free) (from UniProt P02649 19-317) (ligand)
	202	62000	0.0099	0.065	0.0027	236	Recombinant human apolipoprotein E4 (lipid-free) (from UniProt P02649 19-317) (ligand)
